For the data set, the system named is MS2 coat protein. Nature of the data set: apparent KD of MS2 coat protein; higher = weaker reporter binding. Particulars: Eterna round: R107. Here is the method:
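RNA-MaP round R107: designed RNA switches with theophylline, tryptophan, arginine or FMN aptamers are transcribed on-chip within common flanks. They are titrated with SNAP-549-labelled MS2 coat protein in RNA-MaP buffer (100 mM Tris pH 7.5, 80 mM KCl, 4 mM MgCl2), without ligand or with the indicated ligand. Median apparent KD per design.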

The mark [1] stands for this setting: input ligand: theophylline 20 uM.
The mark [2] stands for this setting: input ligand: theophylline 2 mM.
Setting [3] is: input ligand: tryptophan 2.4 mM.

Consider “AAUGUAUGGCACAUGAGGAUCACCCAUGUGCGAGGACCGGUACGGCCGCCACUCGGUCGGUGGUUAAUGAAGCUAUACAUUAAUG [XTryp A #13]”, for which the “apparent KD of MS2 coat protein” value turned out to be 26.8 nM (input ligand: arginine 13.2 mM), 53.5 nM under setting [1] and 55.1 nM under setting [2].
As to “AAUUCAAGGUUCUUGAUGUAUUAUAUAUUUCGAGGACCGGUACGGCCGCCACUCGUUAAUUACAUGAGGAUCACCCAUGUUAGCU [JR_ExcTryptoA_Sub010]”, the “apparent KD of MS2 coat protein” value (input ligand: arginine 13.2 mM) was 14.2 nM, the “apparent KD of MS2 coat protein” value under setting [1] worked out at 16 nM and the “apparent KD of MS2 coat protein” value under setting [2] is 17.2 nM.
On to “AAUUCAAUUUUCUUGAUGUAUUAUAUAUUUCGAGGACCGGUACGGCCGCCACUCGUUAAUUACAUGAGGAUCACCCAUGUUAGCU [JR_ExcTryptoA_Sub009]”, for which the “apparent KD of MS2 coat protein” value came to 13.6 nM (input ligand: arginine 13.2 mM), 17.5 nM under setting [1] and 16.2 nM under setting [2].
On to “AAUUUAAACGGAAGGAGCGUCACUUAAUAUCAACAUGAGGAUCACCCAUGUACGGGUUGUAGACAGGUAGGUCGCCGUCAUUUGA [#15 Same State - Arginine B]”, for which the “apparent KD of MS2 coat protein” value reads like this: (input ligand: arginine 13.2 mM) 49.4 nM; (input ligand: none) 47.9 nM; under setting [1], 74.5 nM; under setting [2], 64.5 nM; under setting [3], 53.5 nM.
“ACACCGAAAGGUGCAUUUACCUUAUCAGAUACCAGACUUUACGUUGUCCCUUGGCAGCUGUAUCACAUGAGGAUCACCCAUGUUG [JR_SSTheophyA_Sub011]”: the “apparent KD of MS2 coat protein” value is, setting by setting: (input ligand: arginine 13.2 mM) 19.3 nM; under setting [1], 18.8 nM; under setting [3], 16.6 nM.
“ACACGAAGCUGAAGGAGCGUGGUAUAAAUUUUUACAUGAGGAUCACCCAUGUUUCAUCAAUCACAGGUAGGUCGCAGAUGCGUGA [JR_SSArginiB_Sub014]”: the “apparent KD of MS2 coat protein” value came to 19.6 nM (input ligand: arginine 13.2 mM); 14.1 nM (input ligand: none); 18.6 nM under setting [1]; 20.2 nM under setting [2]; 15.9 nM under setting [3].
Regarding “ACAUCCAGGUUAAUCGUGGGCAUGGUCGAUACCAGUAUUUUAAUCUACCCUUGGCAGCGACAUGAGGAUCACCCAUGUGCGAUGA [XTheo A #13]”, the “apparent KD of MS2 coat protein” value by setting is: (input ligand: arginine 13.2 mM) 20.1 nM; under setting [1], 33.7 nM; under setting [3], 25.8 nM.
For “ACAUGAGGAUCACCCAUGUAAUAAGGAGAAGGAGCGCGUAAGGACGCAGGUAGGUCGCUCGUGGUCCGGCCGCAAGGCCGGACCA [#1 Same State - Arginine A Attempt #8 (HarryS)]”, the “apparent KD of MS2 coat protein” value (input ligand: arginine 13.2 mM) turned out to be 4.83 nM; the “apparent KD of MS2 coat protein” value (input ligand: none) is 11.2 nM; the “apparent KD of MS2 coat protein” value under setting [1] is 15.4 nM; the “apparent KD of MS2 coat protein” value under setting [2] is 8.04 nM; the “apparent KD of MS2 coat protein” value under setting [3] is 9.31 nM.
On the same counts, the results for “ACAUGAGGAUCACCCAUGUACAUAAGGGAAGGAGCGCGGUGAAACGCAGGUAGGUCGCCCAUAAUAACAAACAUUAAAUUCAUGU [LeftA2]” are 28 nM, 14.3 nM, 18.6 nM, 17.9 nM and 16.6 nM.
For the sequence “ACAUGAGGAUCACCCAUGUACAUGAGGGAAGGAGCGGUACAUGAGCCAGGUAGGUCGCCCAUGAGCAUCAGGCAUGUACAUCAGC [kokmmullin]”, the “apparent KD of MS2 coat protein” value (input ligand: arginine 13.2 mM) stood at 47.6 nM; the “apparent KD of MS2 coat protein” value (input ligand: none) was 99.5 nM; the “apparent KD of MS2 coat protein” value under setting [1] was found to be 97.3 nM; the “apparent KD of MS2 coat protein” value under setting [2] stood at 105 nM; the “apparent KD of MS2 coat protein” value under setting [3] is 56.6 nM.
For “ACAUGAGGAUCACCCAUGUAUUACCGGGAAGGAGCGGCCGCAAGGCCAGGUAGGUCGCUCGGUGUCGUGCUGUAAAGCACGACAA [#1 Same State - Arginine A Attempt #29 (HarryS)]”, the “apparent KD of MS2 coat protein” value was 11.9 nM (input ligand: arginine 13.2 mM); 10.2 nM (input ligand: none); 16.7 nM under setting [1]; 11.5 nM under setting [2]; 9.61 nM under setting [3].
Turning to “ACAUGAGGAUCACCCAUGUAUUCAUCAGAAGGAGCGUGGAAUAACACAGGUAGGUCGCUGAUUAUUUGUUAAAUAAAUUCGUGUA [JR_Nu_SSArginiA_Sub023]”, the “apparent KD of MS2 coat protein” value runs as follows: (input ligand: arginine 13.2 mM) 19.3 nM; (input ligand: none) 16.1 nM; under setting [1], 19.1 nM; under setting [2], 16 nM; under setting [3], 16.4 nM.
For “ACAUGAGGAUCACCCAUGUCAAGGCACGAUACCAGCUGAUCCGGUGGCCCUUGGCAGCGUCACGUUUGGUCCCGCGGAUGACACG [p'pmullin]”, the “apparent KD of MS2 coat protein” value was found to be 32.1 nM (input ligand: arginine 13.2 mM), 139 nM under setting [1] and 106 nM under setting [3].
On to “ACAUGAGGAUCACCCAUGUUAAGCAGGGUGCGAGGACCGGUACGGCCGCCACUCGGACAUUAUUACGAGUGAAUGGUAACGAUGU [#14 Exclusion Tryptophan A]”, for which the “apparent KD of MS2 coat protein” value (input ligand: arginine 13.2 mM) was found to be 23.3 nM; the “apparent KD of MS2 coat protein” value (input ligand: none) stood at 18.2 nM; the “apparent KD of MS2 coat protein” value under setting [1] came to 29.8 nM; the “apparent KD of MS2 coat protein” value under setting [2] amounted to 24.5 nM; the “apparent KD of MS2 coat protein” value under setting [3] was 21.7 nM.
Turning to “ACAUGAGGAUCACCCAUGUUCCUCAUUGAUACCAGUGAAUUUAGACGCCCUUGGCAGCGAGUUUUUUUAGAAGAAGUUUUUUUUU [6.F]”, the “apparent KD of MS2 coat protein” value runs as follows: (input ligand: arginine 13.2 mM) 158 nM; under setting [1], 659 nM; under setting [3], 929 nM.
Regarding “ACAUGAGGAUCACCCAUGUUCCUCAUUGAUACCAGUGAAUUUAGACGCCCUUGGCAGCGAGUUUUUUUAUAAGAAGUUUUUUUUU [6.G]”, the “apparent KD of MS2 coat protein” value was 280 nM (input ligand: arginine 13.2 mM), 659 nM under setting [1] and 900 nM under setting [3].
Consider “ACAUGAGGAUGGGAUACCAGAUACAUGAGGAUCACCCAUACAUGAGGAUCACCCAUGUCCGUCCCUUGGCAGCCCAACAUGAGGA [Exclusion Theophylline B]”, for which the “apparent KD of MS2 coat protein” value is 77.4 nM (input ligand: arginine 13.2 mM), 153 nM under setting [1] and 150 nM under setting [3].

The values above are taken from the supplement of paper PMC9170038.
